Reference: PMC8999913

Molecular target: VAP-A (VAMP-associated protein A) (UniProt Q9P0L0)
Test: anti-GFP co-IP after DSP crosslinking, VAP-A blot
Conditions: reference: WT, sorbitol-treated; sites S315

binding against the reference: weaker
Substance: CERT (ceramide transport protein) (from UniProt Q9Y5P4) S315A, sorbitol-treated
